Experimental data from the supplement of paper PMC10567573.
± gives the standard deviation.

Test: protein stability index of a GFP-peptide fusion (GPS, HEK-293T) (PSI 1-6); higher = more stable
[1] = treatment: DMSO, c terminus: a fixed tail appended
[2] = treatment: MLN4924 1 uM, 8 h, c terminus: a fixed tail appended
[3] = treatment: DMSO, c terminus: native
[4] = treatment: MLN4924 1 uM, 8 h, c terminus: native
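Note: 24-mer peptide tiles fused after GFP, lentivirally expressed, FACS-sorted into six equal bins by GFP/DsRed ratio, decoded by Illumina sequencing, PSI is the read-weighted mean bin number.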

Sequence	protein stability index [1]	protein stability index [2]	protein stability index [3]	protein stability index [4]
LPAEARERSRGRSISRGRHARTHP [MATN2]	5.05 ± 0.5	5.17 ± 0.23		
IENYKKQTRNGLGKDHEILRRRIE [FUT8]	3.67 ± 0.24	3.87 ± 0.24		
APIRVRNLTIRAGALTGKENNMLQ [DMRTC1]	3.46 ± 0.23	3.26 ± 0.19		
GHISLRRENSSDSPKELKRRNSSS [DLC1]	5.03 ± 0.27	5.23 ± 0.15		
PVTNNLLEKCKTLVSQSNDLSSLR [SPACA9]	3.04 ± 0.2	3.14 ± 0.24		
LFRKDVDDATLSRLELERKIESLM [PRPH]	3.06 ± 0.22	3.33 ± 0.29		
RLLMSQADKMTAEEVDQMFQFASI [MYL5]	3.06 ± 0.26	3.1 ± 0.37		
GGGGGGGGKSGGIVISPFRLEELT [CCDC6]	3.34 ± 0.12	3.59 ± 0.41		
NVQRLAEPSQMLKHAVVNLINYQD [CTNNB1]	2.66 ± 0.18	2.83 ± 0.12		
RFTRTPVDQTGVSGGVASFICQAT [PTPRD]	3.12 ± 0.28	3.19 ± 0.37		
ITQSWQVSVRVQPRGRAHLLPNPY [C22orf15]	2.59 ± 0.83	3.36 ± 0.85		
GEKPFTCHECGKKFSQNSHLIKHR [ZNF75A]	3.44 ± 0.35	3.9 ± 0.56		
VLSLACAGGHLAVVELLLAHGADP [ANKRD17]	2.3 ± 0.66	2.44 ± 0.95		
LAPIHKLEEALYEYQPLQIETYGP [MNAT1]	2.41 ± 0.46	2.71 ± 0.49		
QVYLSHTAWTEACQVEVRLLLAYN [INTS4]	3.15 ± 0.51	3.09 ± 0.19		
QKNFNNLYGTKGNYTSRVWEYSSS [TRIM29]	2.31 ± 0.4	2.51 ± 0.12		
LDSCKQLTLAQGAGEEDPSGMVTI [SMG5]	4.46 ± 0.16	4.49 ± 0.4		
LASSLGNLNAATDDPENKKTSSSS [CDC14A]	5.43 ± 0.15	5.53 ± 0.15		
MIHGRSVLHIVASLIILHLSGATK [NETO1]	3.03 ± 0.24	3.02 ± 0.54		
LQLAIPRENAQISLDGDVTFFGAL [TNFSF13B]	2.1 ± 0.32	2.17 ± 0.36		
MAEQSDEAVKYYTLEEIQKHNHSK [CYB5A]	5.31 ± 0.24	5.28 ± 0.19		
HHLGSGSGAGGTGGPAGQAGRGGA [MYOZ1]	4.9 ± 0.35	5.01 ± 0.33		
CFRSLAASSPSIRQKKLMHKLQEE [CCDC70]	3.22 ± 0.15	3.33 ± 0.046		

Sequence	protein stability index [1]	protein stability index [2]	protein stability index [3]	protein stability index [4]
QPPPQEEPGTPSSSPDDKLLTSPR [KLHL14]	5.52 ± 0.16	5.48 ± 0.15		
MVAHDETGGLLPIKRTIRVLDVNN [NET1]	3.27 ± 0.21	3.35 ± 0.25		
IYRKREEKRNAGNAVRSAMKSEEQ [KMT5A]	4.47 ± 0.17	4.39 ± 0.25		
KMELGIDLLAYGAKAELPKYKSFN [MYOZ1]	2.59 ± 0.23	2.77 ± 0.24		
QKENVFKCDSLKEECIPEHMVRES [FAN1]	4.56 ± 0.38	4.56 ± 0.19		
DWNEWRDYHLLHPVENIPEIILYW [SLC25A25]	2.35 ± 0.51	2.2 ± 0.12		
ELWIYNMETGRWKKINTEGDVPPS [KLHDC2]	3.43 ± 0.2	3.61 ± 0.27		
TTSPNVLWPTPGHLSPLVVHRQLS [ESR2]	2.85 ± 0.29	2.72 ± 0.41		
FKLKPLSNKTATDDTGGKDPRNV [PLD5]			4.78 ± 0.17	4.89 ± 0.19
FPLMTIEEFAAGPAQSGILSDREV [BTBD1]	3.83 ± 0.33	3.98 ± 0.18		
SSKFYDLFLMECEESPNGSEGACE [RHOBTB1]	3.72 ± 0.74	3.79 ± 0.1		
LRVSPDGTAFCSGSWDHTLRVWA [GNB5]			2.95 ± 0.33	2.77 ± 0.77
QLILFGLSNQLAVTFREENTIAFR [MCOLN1]	2.65 ± 0.49	2.33 ± 0.64		
PQQYMAFLPHHIMVKIFRLLPTKS [FBXO34]	2.23 ± 0.38	2.07 ± 0.39		
ADLLEEEVIISWSEKASKKYVSKE [EIF5]	3.98 ± 0.31	4.16 ± 0.41		
EGLYEQAFQLLRRFVQAEGRRATL [TRADD]	2.28 ± 0.13	2.23 ± 0.54		
WEQTHLTYRIENYTPDLPRADVDH [MMP1]	3.95 ± 0.31	3.53 ± 0.3		
NGAGVTVLRREISELRTKVQEQQK [FBXO28]	4.11 ± 0.23	4.21 ± 0.13		
CFALIPKAPKKDVIKMLVNDNKVL [EFHC1]	2.28 ± 0.44	2.43 ± 0.53		
SHWDLNHTHPSACQGQRLFEKLLQ [PLD5]	2.56 ± 0.43	2.54 ± 0.3		
PGGVYAGPEPPPVYTNLSSYSPAS [JUNB]	3.94 ± 0.27	4.18 ± 0.41		
NMERFGEDNLEDDDVEMKNGITQG [CDC14A]	5.54 ± 0.19	5.53 ± 0.23		
DYFPSEDFYRCGYCKNESGSRSNG [ATE1]	3.07 ± 0.32	3.35 ± 0.49		

Sequence	protein stability index [1]	protein stability index [2]	protein stability index [3]	protein stability index [4]
YAPSCAKCKKKITGEIMHALKMTW [PDLIM7]	2.53 ± 0.33	2.44 ± 1		
GELSQARGQEPARADQLCQQELRE [PRPH]	5.26 ± 0.56	5.56 ± 0.085		
RLPRAIGMSLAKELIFSARVLDGK [AUH]	1.83 ± 0.39	1.9 ± 0.2		
ELKLGRKVPESLVRSLRGEEPVPR [LURAP1L]	3.85 ± 0.25	4.16 ± 0.33		
SNSCQDSTDTESNNEEQRSGLIYL [IKZF1]	4.67 ± 0.27	4.735 ± 0.023		
DEELGGSSRVPVGGGPEATLSISD [ZBTB22]	5.37 ± 0.18	5.42 ± 0.06		
LNKELNENQLVRKQDVLGPSTTPP [SASS6]	5 ± 0.2	5.1 ± 0.071		
PGKALGPAATMAVELHYEEGSPRN [C2CD2L]	4.81 ± 0.29	4.82 ± 0.21		
FSVAPHETQTQRGGEFQCGLEAAS [RNF180]	3.37 ± 0.41	3.36 ± 0.14		
NIEEIDEIPLVIKYKKAVGLKLKQ [WDR88]	2.78 ± 0.19	2.91 ± 0.28		
QHQNKSPPKVKAEDGMQCLQLKET [DLC1]	5.17 ± 0.47	5.2 ± 0.11		
GMGLTGTMGMGMPNIAMTSGTVQP [CLINT1]	3.84 ± 0.17	3.69 ± 0.13		
VTTHQPTNLVLPSNGSMHNYCPQQ [EDNRA]	3.75 ± 0.2	3.77 ± 0.056		
IDEVLLHQDVDLVCINLPPPLTRQ [GFOD1]	2.83 ± 0.38	2.98 ± 0.43		
RGSDLKVLEVTEESIDFDQGELAD [FBXO33]	5.42 ± 0.14	5.519 ± 0.053		
VETARSHQRSSSESYTQSFQSRKP [PI4K2A]	5 ± 0.33	5.04 ± 0.29		
ENHPQESKGQPRSQEESEEGEEDA [CHGB]	5.79 ± 0.094	5.64 ± 0.22		
LQRVPSYDSFDSEDYPAALPNHKP [ETS1]	4.45 ± 0.18	4.53 ± 0.17		
GIGYNGMPNGCSDDVLPWRRTAEN [DCTD]	3.03 ± 0.24	2.87 ± 0.1		
LPDGCQPLQLLREMRQALQALLKE [CBY2]	2.45 ± 0.35	2.51 ± 0.33		
PEVTSALLESLNQQRLQGQLCDVS [ZBTB22]	3.57 ± 0.23	3.65 ± 0.35		
CIDFNKNLNEDDTFLVFSKAELGA	2.88 ± 0.63	2.81 ± 0.24		
SPLCLIPMVTSPREEQQLLASTSK [KCTD13]	4.1 ± 0.29	4.37 ± 0.06		

Sequence	protein stability index [1]	protein stability index [2]	protein stability index [3]	protein stability index [4]
LRKYSFDGLDLDWEYPGSQGSPAV [CHIT1]	2.32 ± 0.23	2.61 ± 0.38		
EDQTEYLEERRVKEVVKKHSQFIG [HSP90AB1]	4.11 ± 0.16	4.93 ± 0.17		
AQEPSAVPRAGPLTVNTEAQQLLR [FOXJ1]	4.62 ± 0.39	4.9 ± 0.17		
KKDTLTEEETQFYISETVLAIDAI [STK38L]	3.85 ± 0.3	3.97 ± 0.15		
RNMLGLLGNVAEVKELRPQLMTSQ [ZER1]	3.09 ± 0.3	3.49 ± 0.69		
KEQEETIQRIDENVLGAQLDVEAA [STX5]	5.52 ± 0.22	5.4 ± 0.34		
GEGTGSPPKWQIGEQEFEALMRML [ADD1]	3.29 ± 0.45	3.2 ± 0.31		
YESHSTSELEDLTEPEQRELKTKL [TPD52L3]	5.63 ± 0.13	5.52 ± 0.11		
LSSSEGLEPGSADPLANGCQGVSE [PSD2]	5.39 ± 0.24	5.49 ± 0.12		
VFYCDPCRLRCHPPRGPLAKHRLV [TRIM9]	2.19 ± 0.34	2.36 ± 0.29		
ERPAQRDCSFPGLPRHQDQPHHQP [TRAF3IP2]	4.72 ± 0.15	4.64 ± 0.28		
RIADKFTQHNFQEVMESEEFMLLP [KLHL20]	3.5 ± 0.35	3.54 ± 0.22		
QHPDMSVTKVVVHKETEITPEDGE [EPB41L3]	5.33 ± 0.23	5.39 ± 0.21		
SPIKPGDIKRGIPNYEFKLGKITF [UFD1]	2.65 ± 0.34	2.52 ± 0.39		
LRYVNSTRAPQRAHEVLQELRDIS [FBXO28]	3.09 ± 0.21	3.35 ± 0.28		
PVTPLGLQNEVPPQPDPVFLEALS [SERTAD3]	4.55 ± 0.33	4.46 ± 0.27		
SRIKGWWVFHHYVSTFLSGVMLTW [TMEM120A]	2.55 ± 0.24	2.37 ± 0.36		
MKDRLAELLDLSKQYDQQFPDGDD [STX11]	4.77 ± 0.33	4.89 ± 0.15		
GSGADRIYDLNIPAFVKFAYVAER [NCK2]	2.35 ± 0.29	2.36 ± 0.13		
GGKYLGRTKVVKPYSTVDNPVYYG [EFHC1]	2.87 ± 0.33	2.97 ± 0.33		
